# Results reported in patent publication US20170165373A1 (Amgen, published 2017).
# Where a chain is given by its changes, count along the chain named. Where two headings read alike, the source gives them in different places.
# T1: human BCMA (huBCMA), full length, on cells (human, UniProt Q02223 1-184)
# T1 construct: also called native huBCMA; B-cell maturation antigen
# T1 chain: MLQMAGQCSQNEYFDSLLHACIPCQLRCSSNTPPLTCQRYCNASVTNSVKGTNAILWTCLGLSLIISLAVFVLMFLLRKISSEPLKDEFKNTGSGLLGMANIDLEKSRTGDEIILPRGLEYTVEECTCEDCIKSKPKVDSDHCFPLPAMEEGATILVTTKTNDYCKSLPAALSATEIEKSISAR
# T2: clipped form of the rhuBCMA fusion protein, SEQ ID NO:354 (human)
# T2 construct: also called Peak A
# T2 chain: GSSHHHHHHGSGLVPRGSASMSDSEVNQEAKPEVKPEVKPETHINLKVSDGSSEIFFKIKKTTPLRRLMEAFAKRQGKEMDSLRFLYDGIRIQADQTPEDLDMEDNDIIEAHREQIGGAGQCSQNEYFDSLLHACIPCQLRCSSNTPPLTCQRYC
# T3: clipped form of the rhuBCMA fusion protein, SEQ ID NO:355 (human)
# T3 chain: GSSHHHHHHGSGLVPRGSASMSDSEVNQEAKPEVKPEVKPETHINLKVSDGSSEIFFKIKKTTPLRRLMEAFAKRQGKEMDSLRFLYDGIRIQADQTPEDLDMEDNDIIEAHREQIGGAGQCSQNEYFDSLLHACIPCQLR
# T4: clipped form of the rhuBCMA fusion protein, SEQ ID NO:357 (human)
# T4 chain: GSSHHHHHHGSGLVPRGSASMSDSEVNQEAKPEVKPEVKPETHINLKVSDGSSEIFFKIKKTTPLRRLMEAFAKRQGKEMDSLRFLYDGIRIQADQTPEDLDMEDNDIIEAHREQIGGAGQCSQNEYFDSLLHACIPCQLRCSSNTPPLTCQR
# T5: clipped form of the rhuBCMA fusion protein, SEQ ID NO:356 (human)
# T5 chain: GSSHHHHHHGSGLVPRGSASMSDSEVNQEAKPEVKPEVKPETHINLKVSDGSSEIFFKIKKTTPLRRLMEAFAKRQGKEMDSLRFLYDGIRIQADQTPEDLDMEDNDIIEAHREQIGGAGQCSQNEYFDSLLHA
# T6: recombinant soluble human BCMA (Biacore analyte of Example 2) (human, UniProt Q02223 1-54)
# T6 construct: also called rhu BCMA; rsol.hu BCMA
# T6 sequence: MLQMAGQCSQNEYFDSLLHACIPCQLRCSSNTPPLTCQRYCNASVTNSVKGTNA
# T7: BAFF-R, full length, on transiently transfected cells (human, UniProt Q96RJ3 1-184)
# T7 construct: whole, on cells; also called huBAFF-R
# T7 sequence (looked up): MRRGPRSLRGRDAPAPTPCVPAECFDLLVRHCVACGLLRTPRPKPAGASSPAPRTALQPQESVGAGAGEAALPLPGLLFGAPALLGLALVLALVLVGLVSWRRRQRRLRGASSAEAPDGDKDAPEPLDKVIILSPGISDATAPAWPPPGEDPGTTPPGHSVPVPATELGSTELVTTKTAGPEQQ
# T8: TACI, full length, on transiently transfected cells (human, UniProt O14836 1-293)
# T8 construct: whole, on cells; also called huTACI
# T8 sequence (looked up): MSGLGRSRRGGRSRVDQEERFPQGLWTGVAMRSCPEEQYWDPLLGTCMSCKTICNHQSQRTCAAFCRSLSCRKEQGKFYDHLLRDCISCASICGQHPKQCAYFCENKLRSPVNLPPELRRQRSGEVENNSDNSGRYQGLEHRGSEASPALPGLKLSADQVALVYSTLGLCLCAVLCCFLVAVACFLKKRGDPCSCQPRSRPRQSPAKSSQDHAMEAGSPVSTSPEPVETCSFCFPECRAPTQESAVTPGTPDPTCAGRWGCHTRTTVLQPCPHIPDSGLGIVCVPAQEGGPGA
# T9: rhuBCMA fusion protein (6xHis::Sumo::huBCMA(aa 5-51)::GGS::G3::Avi) (human)
# T9 construct: Monomeric tagged fusion; the entry holds the tags, Sumo and the BCMA part; also called Sumo-BCMA; SumoBCMA
# T9 chain: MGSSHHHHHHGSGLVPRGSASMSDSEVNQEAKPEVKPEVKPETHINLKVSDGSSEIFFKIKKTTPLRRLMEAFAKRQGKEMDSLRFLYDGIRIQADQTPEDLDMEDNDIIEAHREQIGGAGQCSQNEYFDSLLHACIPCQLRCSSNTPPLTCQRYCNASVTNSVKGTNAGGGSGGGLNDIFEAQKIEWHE
# B1: 2A1 (parental fully human anti-huBCMA monoclonal antibody) (antibody, human IgG1, lambda, V domains shown)
# VH: EVQLVESGGGLVKPGRSLRLSCTASGFTFGDYALSWFRQAPGKGLEWVGVSRSKAYGGTTDYAASVKGRFTISRDDSKSFAYLQMNSLKTEDTAVYYCCSSGYSSGWTPFDYWGQGTLVTVSS
# VL: not shown
# notes: also called Ab-5; Ab-18
# B2: 2A1CV4 (antibody, human IgG1, lambda, V domains shown)
# VH: B1 VH with R16G, T23A, C99A
# VL: not shown
# notes: IgG1 covariance mutein of 2A1; also called Ab-38; P61055.3
# B3: 32B5-MCC-DM1 (antibody drug conjugate) (other)
# VH: EVQLLESGGALVQPGGSLRLSCAASGFTFSSYAMNWVRQAPGKGLEWVSAISVGGDTYYADSVKGRFTISRDNSKNTLYLHVNSLSAEDSAVYYCAKDQVTLVRGVWYYYGLDVWGQGTTVTVSS
# VL: VIVLIQSPLSLPVTPGEPASISCRSSQSLLHSNGNNYLDWYLQKPGQSPHLLISLGSNRTSGVPDRFSGSGSGTDFTLKISRVEAEDVGFYYCMQALQPPRRFGQGTKLEIKR
# modifications: antibody carries DM1 through the MCC linker; sites not stated
# B4: 32B5 (antibody, V domains shown)
# VH: B3 VH
# VL: B3 VL
# notes: 32B5.1 was purified hybridoma IgG2 or IgG4; later converted to human IgG1; also called Ab-10; 32B5.1
# B5: 40D7 (antibody, V domains shown)
# VH: B3 VH with H81Q, V82M, S86R, S90T, L102M
# VL: B3 VL with V1D, L4M, Y37F, F67L, F90I, Q98R
# notes: also called Ab-17; 40D7.1
# B6: 11F12 (fully human anti-huBCMA monoclonal antibody) (antibody, V domains shown)
# VH: QVQLVESGGGVVQPGRSLRLSCAASGFTFSSYGLHWVRQAPGKGLEWVALISYDGSNKYYADSVKGRFTISRDNSKNTLYLQMNSLRAEDTAVYYCWYSSSWTPLDYWGQGTLVTVSS
# VL: DIQMTQSPSSLSASVGDRVTITCRASQGIRNDLGWYQQKPGKAPKRLIYAASSLQSGVPSRFSGSGSGTEFTLTISSLQPEDFATYYCLQYYSYPLTFGGGTKVEIKR
# notes: also called Ab-6; 11F12_LC#1
# B7: 1E1 (fully human anti-huBCMA monoclonal antibody) (antibody, IgG1, V domains shown)
# VH: QVQLVQSGAEVKKPGASVKVSCKASGYTFTGHYIHWVRQAPGQGLEWMGWIYPNSGGTNYAQKFQGRVTMTRDTSISTAYMELSRLRSDDSAVYYCAREGMVTGDYYYYRMDVWGQGTTVIVSS
# VL: QPVLTQPPSASASLGASVTLTCSLSSGYSNYKVDWYQQRPGKGPRFVMRVGIGGIVGSKGDGIPDRFSVLGSGLNRYLTIKNIQEEDESDFHCGADHGSGNNFVYVFGTGTKVTVLG
# notes: Recombinantly cloned as IgG1; also called Ab-4
# B8: 33D4 (antibody, V domains shown)
# VH: QVQLQQSGPGLVKPSQTLSLTCAISGDSVSSTNVAWNWIRQSPSRGLEWLGGTFYRSNWYNDYAISVKSRITINPDTSKNQFSLQLNSVTPEDTAVYYCARFYSWNSYFDYWGQGILVTVSS
# VL: B7 VL with S23T, Q38H, I52T, G100E, N101T
# notes: Tested as purified hybridoma IgG2 or IgG4; also called Ab-14; 33D4.1
# Assays:
# [1] = biological target: T1, human BCMA (huBCMA), full length, on …; experiment: FACS, H929 cells
# [2] = biological target: T1, human BCMA (huBCMA), full length, on …; experiment: FACS, H929 cells
# [3] = biological target: T2, clipped form of the rhuBCMA fusion …; experiment: LC/MS (ESI-TOF, reduced sample) of the SEC-isolated 2A1 + SumoBCMA sample
# [4] = biological target: T3, clipped form of the rhuBCMA fusion …; experiment: as above
# [5] = biological target: T4, clipped form of the rhuBCMA fusion …; experiment: as above
# [6] = biological target: T5, clipped form of the rhuBCMA fusion …; experiment: as above
# [7] = biological target: T6, recombinant soluble human BCMA (Biacore …); experiment: Biacore 3000 SPR, antibody captured on anti-human IgG, rhu BCMA as analyte, 25 C
# [8] = biological target: T7, BAFF-R, full length, on transiently …; experiment: FACS on cells transiently transfected with the full-length receptor; positive if MFI is two times the negative control
# [9] = biological target: T8, TACI, full length, on transiently …; experiment: as above
# [10] = biological target: T1, human BCMA (huBCMA), full length, on …; experiment: FACS equilibrium titration on 293T cells transiently transfected with human BCMA (relative FACS affinity)
# [11] = biological target: T1, human BCMA (huBCMA), full length, on …; experiment: FACS, H929 cells
# [12] = biological target: T9, rhuBCMA fusion protein …; experiment: size exclusion chromatography (S200 column, PBS, UV trace), 500 ug antibody incubated with 500 ug sumoBCMA
# [13] = biological target: T1, human BCMA (huBCMA), full length, on …; experiment: cell-based or functional assay
# [14] = biological target: T10, cynomolgus BCMA, on transiently transfected 293T cells (cynomolgus (Macaca fascicularis), UniProt Q02223 1-184 (human entry)); experiment: FACS equilibrium titration on 293T cells transiently transfected with cynomolgus BCMA (relative FACS affinity)
# T10 construct: also called cyno BCMA
# [15] = biological target: T1, human BCMA (huBCMA), full length, on …; experiment: FACS, H929 cells
# [16] = biological target: T1, human BCMA (huBCMA), full length, on …; experiment: FACS on H929 cells, native BCMA, relative binding, indirect
# [17] = biological target: T10, cynomolgus BCMA, on transiently …; experiment: FACS
# [18] = biological target: T8, TACI, full length, on transiently …; experiment: FACS
# [19] = biological target: T1, human BCMA (huBCMA), full length, on …; experiment: FACS
# [20] = biological target: T1, human BCMA (huBCMA), full length, on …; experiment: APRIL blocking FACS; parameters: concentration or dose not given beside the values
# [21] = biological target: T10, cynomolgus BCMA, on transiently …; experiment: FACS O/N
# [22] = biological target: T10, cynomolgus BCMA, on transiently …; experiment: FACS; remark: listed apart in the source
# [23] = biological target: T8, TACI, full length, on transiently …; experiment: FACS; remark: listed apart in the source
# [24] = biological target: T1, human BCMA (huBCMA), full length, on …; experiment: FACS
# [25] = biological target: T6, recombinant soluble human BCMA (Biacore …); experiment: Biacore 3000 SPR, antibody captured on anti-human IgG, rhu BCMA as analyte, steady state fit to a 1:1 isotherm
# [26] = biological target: T7, BAFF-R, full length, on transiently …; experiment: FACS
# T10 sequence (Q02223 other isoform, or with tags, fused parts or gaps): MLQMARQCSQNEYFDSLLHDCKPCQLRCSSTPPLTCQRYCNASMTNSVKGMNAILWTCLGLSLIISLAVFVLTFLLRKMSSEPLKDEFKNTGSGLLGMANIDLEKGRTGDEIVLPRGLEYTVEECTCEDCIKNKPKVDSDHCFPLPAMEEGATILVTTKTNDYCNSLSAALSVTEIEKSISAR
binder,measurement,setting,value
B1,EC50 (read off the curve),[1],~0.2 µg/mL
same,EC50 (read off the curve),[2],~0.1 µg/mL
same,binding result,[3],binds
same,binding result,[4],binds
same,binding result,[5],binds
same,binding result,[6],binds
same,Kd,[7],0.027 nM
same,binding result,[8],no binding
same,binding result,[9],no binding
same,Kd,[10],1.1 nM
same,EC50 (read off the curve),[11],~0.3 µg/mL
same,binding result,[12],binds
same,"ADCC EC50, calcein-AM labelled H929 target cells",[13],0.011 µg/mL
same,Kd,[14],0.905 nM
B2,binding result,[15],binds
B3,EC50,[16],7 nM
same,"H929 cell growth inhibition IC50 (CellTiter-Glo, 96 h)",[13],0.506 nM
B4,MFI,[17],259000
same,MFI,[18],274
same,binding result,[18],no binding
same,MFI,[19],137000
same,% Inhibition n=1,[20],87%
same,% Inhibition n=2,[20],116%
same,Avg. % Inhibition,[20],101%
same,MFI,[21],108
same,EC50,[16],4.2 nM
B5,MFI,[22],39300
same,MFI,[23],1390
same,binding result,[23],no binding
same,MFI,[24],36300
B6,Kd,[25],36.1 nM
B7,Kd,[7],0.113 nM
same,binding result,[8],no binding
same,binding result,[9],no binding
same,Kd,[10],2.8 nM
same,"ADCC EC50, calcein-AM labelled H929 target cells",[13],0.076 µg/mL
same,Kd,[14],> 100 nM
B8,MFI,[26],723
same,binding result,[26],no binding
same,MFI,[22],19400
same,MFI,[23],261
same,binding result,[23],no binding
same,MFI,[24],89900
